Here are results for 19 variants from the RNAGym collection of RNA variant scans (doi:10.1073/pnas.2313332121).

Fewer inactive variants are shown than the library holds. Bounds are passed on as bounds.

The labels stand for the following.
B1: TPR 5TU (parent)
chain: GGAUCUUCUCGAUCUAACAAAAAAGACAAAUCUGCCACAAAGCUUGAGAGCAUCUUCGGAUGCAGAGGCGGCAGCCUUCGGUGGCGCGAUAGCGCCAACGUUCUCAACUAUGACACGCAAAACGCGUGCUCCGUUGAAUGGAGUUUAUCAUG

The series covers variants of B1. Briefly: polymerase ribozyme fitness, log enrichment relative to wild type (log ratio); higher = more active; in vitro selection for triplet polymerase activity. The method, boiled down: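 The heterodimeric triplet polymerase ribozyme's subunits were each mutagenized into PCR-built libraries and transcribed. Every library was selected once, in triplicate, by annealing with a biotinylated primer, the partner subunit and triplets, incubating frozen at −7 °C, gel-excising extended constructs, capturing on streptavidin beads and running RT-PCR. Input and output libraries were Illumina-sequenced, with genotypes kept only at ≥10 input reads and ≥1 read per output. Fitness, from inverse-variance-weighted replicate averages, is the base-2 logarithm of genotype enrichment over wild-type enrichment.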
For GGAUCUUCUCGAUCUAACAAAAAAGACAAAUCUGCCACAAAGCUUGUGAGCAUCUACGGAUGCAGAGGCGGCAGCCUUCGGUGGCGGGAUAGCGCCAACGUUCUCAACUAUGACCCGCAAAACGCGUGCUCCGUUGAAUGAAGUUUAUCAUG [A47U U56A C87G A115C G141A], the “polymerase ribozyme fitness (log ratio)” value is -3.84.

For GGAUCUUCUCGAUCUUACAAAAAAGAUACAUCUGCCACAAAGCUUGAGGGCAUCUUCGGAUGCAGAGGCGGCAGCCUUCGGUGGCGCGAUAGCGUCAACGUUCUGAACUAUGACACGCAAAACGCGUGCUCCGUUGAAUGGAGUUAAUCAUG [A16U C27U A29C A49G C95U C105G U146A], the “polymerase ribozyme fitness (log ratio)” value is at most -4.2. GGAUCUUCUUGAGCUAACAAAAAAGACAAAUCUGUCACAAAGCUUGAGAUCAUCUUCGCUUGCAGAGGCGGCAGCCUUCGGUGGAGCGAUAGCCCCAACGUUCUCAACUAUGACACGCAAAACGCGUGCUCCGUUGAAUGAAGUUUAUCAUG [C10U U13G C35U G50U G59C A60U C85A G94C G141A]: the “polymerase ribozyme fitness (log ratio)” value was at most -4.2.

Regarding GGAUCUUCUCGAUCUAACAAAAAAGACAAAUCUGCCACAAAGCUUGAGAGCAUCUUCGGAUGCAGAGGCGGCAGCCUUCGGUGGCGCGAUAGCGCCAACGUUCUCAACUAUGACAUGCAAAACGCGUGCUCCGUUGAAUGAAGUUUAUCAUG [C116U G141A], the “polymerase ribozyme fitness (log ratio)” value was -1.01. With GGAUCUUCUCGAUCUAACAAAAAAGACAAAUCUGCCACAAAGCUUGAGAGCAUCUUCGGAUGCAGAGGCGGCAGCCUUCGGUGGCGCCAUAGCGCCAACGUUCUCAACUAUGACACGCAAAACGCGUGCUCCGUUGAAUGGACUUUAUCAUG [G88C G143C], the “polymerase ribozyme fitness (log ratio)” value is -3.92.

As for GGAUUUUCUCGAUCUAACAAAAAAGAGAAAUCUGCCACAAAGCUUGAGAGCAUCUUCGGAUGCAGAGGCGGCAGCCUUCGGUGGCGCGAUAGCGUUAACGUUCUCAACUAUGACACGCAAAACGCGUGCUCCGUUGAAUGCAGUUUAUCAUG [C5U C27G C95U C96U G141C], the “polymerase ribozyme fitness (log ratio)” value was at most -4.2.

As to GGAUCUUCUCGAUCUAACAAAAAAGACAAAUCUGCCACAAAGCUUGAGAGCAUCUUCGGAUGCAGAGGCGGCAGCCUUCGGUGGAGCGAUAGCGCCAACGUUCUCAACUAUGACACGCAAAACGCGUGCUCCGUUGAAUGGAGUUUAUCAUU [C85A G152U], the “polymerase ribozyme fitness (log ratio)” value is -3.5.

For the variant GGAUCUUCUCGAUCUAACAAAAAAGACAAAUCUGCCACAAAGCUUGCGAUCAUCUUCUGAUGCAGAGGCGGCAGCCUUCGGUGGCGCGAUGGCGCCUACGUACUCAACUAUGACACGCAAAACGCGUGCUCCGUUGAAUGGAGUUUAUCAUG [A47C G50U G58U A91G A97U U102A], the “polymerase ribozyme fitness (log ratio)” value is at most -4.2. Turning to GGAUAUUCUCGAUCUAACAAAAAAGACAAAUCUGCCACAAGGCUUGAGAGCAUCUUCAGCUGCAGAGGCGGCAGCCUUCGGUGACGCGAUAGCGCCAACGUUCUCUACUAUGACACGCAAAACGCGUGCUUCGUUGAAUGGAGUUAAUCAUG [C5A A41G G58A A60C G84A A106U C131U U146A], the “polymerase ribozyme fitness (log ratio)” value is -3.76.

Consider GGAUCUUCUCGAUCUAACAAAAAAGACAAAUCUGCCACAAAGCUUGAGAGCAUCUUCGGAUGAAGAGGCGGCAGCCUUCGGUGGCGUAAUAGCGCCAACGUUCUCAACUAUGACUCGCAAAACGCGUGCUCCGUUGAAUGGAGUUUAUCAUG [C63A C87U G88A A115U], for which the “polymerase ribozyme fitness (log ratio)” value was at most -4.2. For GGAUCUUCUCGAUCUAACAAAAAAGACAAAUCUGCCACAAAGCUUGAGAGCAUCUUCGGAUGCGGAGGCGGCAGGCUUCGGUGUCGCGAUAGCGCCAACGUUCUCAACUAUGACACGCAAAACGCGAGCUCCGUUGAAUGGUGUUUAUCAUG [A64G C75G G84U U127A A142U], the “polymerase ribozyme fitness (log ratio)” value was at most -4.2. Regarding GGAUCUUCUCGAUCUAACAAAAAAGACAAAUCUGCCACAAAGCUUGAGAGAAUCUUCGGAUGCAGAAGCGGCGGCCUUCGGUGGCGCGAUAGCGACAACGGUCUCAACUAUGACACGCAAAACGCGUGCUCCGUUGAAUUGAGUUUAUCAGG [C51A G67A A73G C95A U101G G140U U151G], the “polymerase ribozyme fitness (log ratio)” value is at most -4.2. For the variant GGAUCUUCUCGAUCUAACAAAAAAGACAAAUCUGCCACAAAGCUUGAUAGCAUCAUCGGAUGCAGAGGCGGCAGCCUUCGGUGGCGCGAUAGCGCGAACGUUCUCAACUAUGACUCGCAAAACGCGUGCUCCGUUGAAUGGAGUUUAUCAUG [G48U U55A C96G A115U], the “polymerase ribozyme fitness (log ratio)” value is -4.16.

Turning to GGAUCUUCUCGAUCUAACAAAAAAGACAAAUCUGCCACAAAGCUUGAGAGCAUCUUCGGAUGCAGAGGCAGCAGCCUUCGGUGGCGCGAUAGCGCCAACGUUCUCAACUAUGACACGCAAAACGCGUGCUCCGUUGAAUGGAGUUUUUCAUG [G70A A147U], the “polymerase ribozyme fitness (log ratio)” value was -2.67. The figure for GGAUCUUCUCGAUCUAACAAAAAAGACAAAUCUGCCACAAAGCUUGAAAGCAUCUUGGGGUGAAGAGGCGGCAGCCUUCGGUGGCGCGAUAGCGCCAAGGUUCUCAACUAUGACACGCAAAACGCGUGCUCCGUUGAAUGGAGUUUAUCAUG [G48A C57G A60G C63A C99G] is at most -4.2; for GGAUCUUCUCGAUCCAACAAAAAAGACAAAUCUGCCACAAAGCUUGAGAGCAUCGUCGGAUGCAGAGGCGGCAGCCUUCGGUGGCGCGAUAGCGCCAACGUUCUCAACUAUGACACGCAAAACGCGUGCUCCGUUGAAUGGAGUUUAUCAUG [U15C U55G] it is 0.263. Turning to GGAUCUUCUCGAUCUAACAAAAAAGACAAAUCUGCCACAAAGCUUGAGAGCAUCUUCGGAUGCAGAGGCGGCAGCUUUCGGUGAAGCGAUAGCGCCAACGUUCUCAACUAUGACACGCAAAACGCGUGUUCCGCUGAAUGGAGUUUAUCAUG [C76U G84A C85A C129U U134C], the “polymerase ribozyme fitness (log ratio)” value was at most -4.2.

In the case of GGAUCUUCUCGAUCUAACAAAAAAGACAAAUCUGCCACAAAGCUUGAGAGCAUCUUCGGAUGCAGAGGCGGCAGCCUUCGGUGGCGCGAUAGCGCCAACGUUCUCAACUAUGACUCGCAAAACGCAUGCUCCGUUGAAUGGAGUUUAUCAUG [A115U G126A], the “polymerase ribozyme fitness (log ratio)” value was -3.35. The figure for GGAUCUUCUCGAUCUAAAGAAAAAGACAAAUCUGCCACAAAGCUUGAGAGCAUCUUAGGAUGCAGAGGCGGCAGCCUUCGGUGGCGUGAUAGCGCCAACGUUCUCAACUAUGACACGCAAAACGCGUGAUCCGUGGAAUGGAGUUUAUCAUG [C18A A19G C57A C87U C129A U135G] is at most -4.2.
